Test results taken from the supplement of paper PMC7877785.
± gives the uncertainty stated by the source.

Assay: self-splicing fitness, log relative to wild type (ln ratio); higher = more splicing; Tetrahymena group I intron in knt gene, E. coli kanamycin selection, DiMSum; sequences stand for … in CUCUCU…GGAGGGAAAAGUUAUCAGGCAUGCACCUGGUAGCUAGUCUUUAAACCAAUAGAUUGCAUCGGUUUAAAAGGCAAGACCGUCAAAUUGCGGGAAAGGGGUCAACAGCCGUUCAGUACCAAGUCUCAGGGGAAACUUUGAGAUGGCCUUGCAAAGGGUAUGGUAAUAAGCUGACGGACAUGGUCCUAACCACGCAGCCAAGUCCUAAGUCAACAGAUCUUCUGUUGAUAUGGAUGCAGUUCACAGACUAAAUGUCGGUCGGGGAAGAUGUAUUCUUCUCAUAAGAUAUAGUCGGACCUCUCCUUAAUGGGAGCUAGCGGAUGAAGUGAUGCAACACUGGAGCCGCUGGGAACUAAUUUGUAUGCGAAAGUAUAUUGAUUAGUUUUGGAGUACUCGUGGUCG
Summary of the method: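 Fitness was computed with DiMSum as the error-weighted combination of replicate fold changes, kanamycin versus none, each normalised to wild type. The library randomised all eight intron nucleotides of the P1ex region, with the intron placed in the knt kanamycin-resistance gene on pET-22b(+) in E. coli BL21(DE3). Six replicate transformations were grown overnight at 37°C or 30°C on LB agar with or without 25 μg/mL kanamycin, plus 100 μg/mL carbenicillin, 50 μM IPTG and 0.2% rhamnose. Pooled colonies were amplicon-sequenced on an Illumina HiSeq 2500.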

Sequence | self-splicing fitness (ln) (30 °C) | self-splicing fitness (ln) (37 °C)
ACUAAGCAAUAUUACGUCAU | -3.64 ± 0.16 | -2.28 ± 0.15
AGCCAGCAAUAUUACGUGCC | -2.96 ± 0.15 | -1.98 ± 0.14
CCGCAGCAAUAUUACGGAGC | -3.52 ± 0.14 | -2.48 ± 0.18
CUAGAGCAAUAUUACGUUUG | -1.33 ± 0.088 | -0.528 ± 0.1
AGCCAGCAAUAUUACGGAGA | -2.57 ± 0.16 | -1.34 ± 0.15
CGAAAGCAAUAUUACGCUCG | -3.71 ± 0.3 | -2.26 ± 0.22
CCACAGCAAUAUUACGUGCC | -1.6 ± 0.15 | -2.36 ± 0.21
CGGAAGCAAUAUUACGUCAA |  | -3.55 ± 0.42
UUUAAGCAAUAUUACGCAAG | -1.43 ± 0.2 | -0.275 ± 0.18
CAAAAGCAAUAUUACGCCAC | -2.1 ± 0.24 | -1.89 ± 0.34
GGCUAGCAAUAUUACGGGCC |  | -1.98 ± 0.42
AUGCAGCAAUAUUACGACUG | -3.44 ± 0.23 | -2.8 ± 0.31
CUAGAGCAAUAUUACGUAAG | -0.628 ± 0.06 | 0.154 ± 0.089
AGCGAGCAAUAUUACGAGAG | -3.19 ± 0.32 | -2.94 ± 0.32
GAUCAGCAAUAUUACGAUUU | -0.286 ± 0.085 | 0.0945 ± 0.1
AUCCAGCAAUAUUACGACAA | -0.977 ± 0.095 | -0.337 ± 0.096
UUCGAGCAAUAUUACGAGUA | -1.57 ± 0.15 | -1.43 ± 0.18
CCCCAGCAAUAUUACGCUGG | -2.76 ± 0.11 | -1.73 ± 0.14
AGUAAGCAAUAUUACGUGCA | -1.36 ± 0.085 | -0.712 ± 0.092
UAGAAGCAAUAUUACGUCGA | -1.61 ± 0.14 | -0.578 ± 0.14
GGGUAGCAAUAUUACGUGGG | -4.13 ± 0.32 | -2.29 ± 0.19
UCCAAGCAAUAUUACGCGAG | -4.03 ± 0.24 | -2.93 ± 0.27
CGGAAGCAAUAUUACGUAAG | -0.619 ± 0.072 | 0.241 ± 0.1
UAGGAGCAAUAUUACGUGAG | -2.42 ± 0.14 | -1.55 ± 0.14
GCUUAGCAAUAUUACGGCUA | -0.299 ± 0.24 | -1.61 ± 0.27

Sequence | self-splicing fitness (ln) (30 °C) | self-splicing fitness (ln) (37 °C)
GGUAAGCAAUAUUACGCAGG | -2.05 ± 0.16 | -1.29 ± 0.15
CGAAAGCAAUAUUACGGAGG | -0.982 ± 0.097 | -1.45 ± 0.14
GACUAGCAAUAUUACGAGGU | -2.34 ± 0.2 | -1.64 ± 0.2
GCUUAGCAAUAUUACGUUUU | -1.68 ± 0.068 | -0.474 ± 0.075
ACUAAGCAAUAUUACGACUG | -0.95 ± 0.065 | -0.652 ± 0.089
GACAAGCAAUAUUACGGGGA | -3.05 ± 0.12 | -1.75 ± 0.1
GGAAAGCAAUAUUACGGCUC | -0.254 ± 0.13 | 0.018 ± 0.16
GGGGAGCAAUAUUACGAAAG | -3.12 ± 0.44 | 
AGUGAGCAAUAUUACGAACG | -0.686 ± 0.094 | -0.206 ± 0.15
CCGAAGCAAUAUUACGGCCG | -0.396 ± 0.099 | -0.442 ± 0.12
AGGAAGCAAUAUUACGGGCU | -1.72 ± 0.12 | -0.915 ± 0.13
GGAUAGCAAUAUUACGUUGU | -3.13 ± 0.2 | -1.58 ± 0.15
GUUAAGCAAUAUUACGCGGG | -2.2 ± 0.12 | -1.69 ± 0.16
UGGCAGCAAUAUUACGUAAA | -0.723 ± 0.077 | -0.922 ± 0.093
CGCUAGCAAUAUUACGGCCA | -0.309 ± 0.16 | -0.364 ± 0.2
UGACAGCAAUAUUACGCUGG | -2.21 ± 0.18 | -1.92 ± 0.33
CCCCAGCAAUAUUACGUUCA | -2.97 ± 0.12 | -2.84 ± 0.2
ACCAAGCAAUAUUACGCCCA | -1.06 ± 0.13 | -0.545 ± 0.17
CCUUAGCAAUAUUACGUACU | -2.32 ± 0.23 | -1.99 ± 0.21
UUUUAGCAAUAUUACGUAAG | -0.681 ± 0.13 | -0.523 ± 0.14
UAAGAGCAAUAUUACGUGUC | -3.09 ± 0.21 | -0.977 ± 0.17
CUGAAGCAAUAUUACGCAGC | -3.2 ± 0.4 | -1.77 ± 0.45
UCUUAGCAAUAUUACGAUUU | -3.07 ± 0.18 | -1.09 ± 0.13
GAAGAGCAAUAUUACGGAAG | -2.81 ± 0.2 | -2.59 ± 0.44
UUCGAGCAAUAUUACGCGGC |  | -2.29 ± 0.49

Sequence | self-splicing fitness (ln) (30 °C) | self-splicing fitness (ln) (37 °C)
UUGGAGCAAUAUUACGCCUG | -2.22 ± 0.2 | -1.2 ± 0.23
GCCUAGCAAUAUUACGUGCA | -2.35 ± 0.12 | -0.937 ± 0.1
GUUAAGCAAUAUUACGAGCU | -1.76 ± 0.13 | -1.08 ± 0.15
CUAAAGCAAUAUUACGUGCC | -4.57 ± 0.29 | -2.25 ± 0.18
UGGUAGCAAUAUUACGGGGA | -2.58 ± 0.26 | -2.18 ± 0.18
UCACAGCAAUAUUACGUUUC | -3.8 ± 0.19 | -3.02 ± 0.21
CGUAAGCAAUAUUACGAGCG | -1.02 ± 0.11 | -2.67 ± 0.24
ACGAAGCAAUAUUACGGGAC | -4.36 ± 0.24 | -2.68 ± 0.18
AGAAAGCAAUAUUACGCCAC |  | -2.07 ± 0.41
CAACAGCAAUAUUACGUAGU | -3.22 ± 0.12 | -1.91 ± 0.11
UACCAGCAAUAUUACGGGUA | -3.45 ± 0.14 | -3.02 ± 0.15
GUUAAGCAAUAUUACGCCCG | -0.342 ± 0.39 | -1.05 ± 0.45
AAAGAGCAAUAUUACGAUGA | -3.01 ± 0.25 | -2.02 ± 0.19
CCGUAGCAAUAUUACGAACG | -1.07 ± 0.12 | -0.439 ± 0.15
UCAGAGCAAUAUUACGAGAG | -3.72 ± 0.27 | -3.27 ± 0.42
UCGCAGCAAUAUUACGGUUA | -0.15 ± 0.086 | -0.398 ± 0.087
GACGAGCAAUAUUACGGUCU | -2.33 ± 0.15 | -2.8 ± 0.27
AAUUAGCAAUAUUACGACUA | 0.0301 ± 0.1 | 0.169 ± 0.099
AGGUAGCAAUAUUACGCUGG | -3.816 ± 0.035 | -2.83 ± 0.046
GCUUAGCAAUAUUACGUAGG | -1.51 ± 0.11 | -0.916 ± 0.14
CGUAAGCAAUAUUACGCUAG | -2.48 ± 0.13 | -0.429 ± 0.14
CACCAGCAAUAUUACGUCUG | -1.55 ± 0.056 | -0.504 ± 0.07
UACUAGCAAUAUUACGGACG | -0.258 ± 0.098 | 0.0809 ± 0.12
CUAAAGCAAUAUUACGGGAC | -2.11 ± 0.13 | -0.677 ± 0.13
UAUCAGCAAUAUUACGAUUU | 0.142 ± 0.055 | 0.207 ± 0.07

Sequence | self-splicing fitness (ln) (30 °C) | self-splicing fitness (ln) (37 °C)
GUGCAGCAAUAUUACGCUGU | -3.35 ± 0.24 | -2.63 ± 0.26
AAAUAGCAAUAUUACGUCUC | -2.14 ± 0.11 | -1.15 ± 0.14
GGCCAGCAAUAUUACGAGUG | -2.55 ± 0.11 | -1.14 ± 0.093
GUGGAGCAAUAUUACGAUGC | -1.96 ± 0.15 | -1.03 ± 0.16
GUUUAGCAAUAUUACGAGGG | -3.76 ± 0.36 | -2.73 ± 0.34
CGCCAGCAAUAUUACGAAAU | -4.66 ± 0.37 | -2.69 ± 0.24
UCUCAGCAAUAUUACGGAAG | -1.82 ± 0.18 | -2.93 ± 0.3
GAACAGCAAUAUUACGCUAC | -4.08 ± 0.34 | -1.64 ± 0.37
GAUGAGCAAUAUUACGGUAG | -2.01 ± 0.14 | -2.2 ± 0.21
GGACAGCAAUAUUACGCACC | -2.25 ± 0.25 | -1.8 ± 0.38
CAGGAGCAAUAUUACGUUUC | -3.21 ± 0.28 | -3.11 ± 0.38
GUGUAGCAAUAUUACGUGGC | -1.72 ± 0.18 | 
GGGAAGCAAUAUUACGUCUC | -3.97 ± 0.37 | -3 ± 0.35
CUGGAGCAAUAUUACGAAAU | -3.11 ± 0.22 | -2.72 ± 0.29
CACAAGCAAUAUUACGGGGA | -2.64 ± 0.11 | -1.69 ± 0.1
CCGUAGCAAUAUUACGUGGU | -4.27 ± 0.24 | -2.12 ± 0.14
UUCCAGCAAUAUUACGCUCG |  | -0.977 ± 0.23
CUGAAGCAAUAUUACGUCCU | -3.45 ± 0.23 | -2.39 ± 0.23
CCUGAGCAAUAUUACGGUGG | -3.67 ± 0.37 | -1.4 ± 0.2
CGUCAGCAAUAUUACGAGUU | -3.3 ± 0.22 | -1.84 ± 0.22
AACCAGCAAUAUUACGAUCU | -0.425 ± 0.052 | 0.391 ± 0.074
GAGGAGCAAUAUUACGGAUU | -3.61 ± 0.18 | -1.95 ± 0.17
